Measurements published in the Human Domainome abundance scans (Beltran et al. 2025).
± gives the uncertainty stated by the source.

B1: E3 ubiquitin-protein ligase NEDD4, residues 836 to 881; numbered along this chain, P46934 (parent)
chain: EIEQGFLPKGWEVRHAPNGRPFFIDHNTKTTTWEDPRLKIPAHLRG

Variants of: B1
Assay: abundance fitness (aPCA) (normalised: wild type 0, dead -1); higher = more abundant; growth selection in yeast, the domain comes from the species named
Conditions: Homo sapiens

Abundance fitness: each site, then its substitutions
N27: D -0.12 ± 0.088; F -0.189 ± 0.066; H -0.543 ± 0.11; M -0.409 ± 0.074; S -0.302 ± 0.05; G -0.382 ± 0.033; P -0.935 ± 0.16; C -0.405 ± 0.062; A -0.295 ± 0.057; T -0.091 ± 0.048; Q -0.364 ± 0.036; L -0.417 ± 0.053; Y -0.593 ± 0.047; I -0.105 ± 0.046; K -0.168 ± 0.045; W -0.827 ± 0.12
L38: N -0.166 ± 0.084; V -0.051 ± 0.041; I -0.043 ± 0.062; R -0.012 ± 0.033; Y -0.435 ± 0.11; E -0.093 ± 0.068; A -0.103 ± 0.046; P -0.072 ± 0.043; Q -0.091 ± 0.063; K -0.105 ± 0.085; W -0.105 ± 0.062; G -0.018 ± 0.034; S -0.019 ± 0.053; T 0.033 ± 0.07; M -0.066 ± 0.066; H -0.292 ± 0.086; D 0.036 ± 0.056
D25: S -0.84 ± 0.061; Q -0.951 ± 0.25; E -0.351 ± 0.13; H -0.394 ± 0.16; V -0.981 ± 0.061; N -0.261 ± 0.091; F -1.04 ± 0.22; M -1.15 ± 0.25; I -0.792 ± 0.34; A -0.848 ± 0.049; L -0.922 ± 0.099; R -0.682 ± 0.067; W -0.86 ± 0.17; Y -0.768 ± 0.21; G -0.836 ± 0.045; C -0.447 ± 0.046; T -0.94 ± 0.23
D35: M -0.734 ± 0.16; I -0.895 ± 0.14; Y -0.906 ± 0.24; P -0.582 ± 0.12; S -0.691 ± 0.067; G -0.593 ± 0.048; H -0.418 ± 0.14; N -0.979 ± 0.18; V -0.762 ± 0.085; T -0.84 ± 0.15; E -0.795 ± 0.11; A -0.216 ± 0.081; R -0.554 ± 0.044; L -0.623 ± 0.055; K -0.814 ± 0.078; W -0.849 ± 0.043
R20: F -0.78 ± 0.1; H -0.064 ± 0.071; V -0.105 ± 0.051; P -0.857 ± 0.17; Y -0.577 ± 0.1; M -0.052 ± 0.052; G -0.917 ± 0.12; T -0.207 ± 0.07; I -0.257 ± 0.051; C -0.278 ± 0.05; N -0.271 ± 0.043; E -0.035 ± 0.055; A 0.016 ± 0.086; S -0.087 ± 0.05; Q 0.137 ± 0.051; D -0.212 ± 0.083; K 0.16 ± 0.046; L -0.223 ± 0.036; W -0.946 ± 0.14
T28: N 0.035 ± 0.067; L -0.341 ± 0.049; I -0.901 ± 0.16; W -0.971 ± 0.071; A -0.383 ± 0.055; V -0.78 ± 0.055; G -0.187 ± 0.041; S -0.201 ± 0.048; E -0.218 ± 0.069; K -0.251 ± 0.042; D -0.327 ± 0.091; H -0.338 ± 0.073; F -0.776 ± 0.14; Y -0.548 ± 0.12; M -0.487 ± 0.038; P -0.823 ± 0.066
T31: M -0.234 ± 0.052; K -0.572 ± 0.12; G -0.398 ± 0.036; S 0.006 ± 0.042; D -0.576 ± 0.11; Y -0.511 ± 0.09; Q -0.158 ± 0.13; L -0.356 ± 0.035; F -0.42 ± 0.085; E -0.44 ± 0.083; C -0.064 ± 0.054; N -0.727 ± 0.15; V -0.185 ± 0.047; A -0.004 ± 0.044; W -0.311 ± 0.071; H -0.578 ± 0.083; P -0.901 ± 0.081
H26: F -0.209 ± 0.098; N -0.449 ± 0.12; T -0.357 ± 0.079; A -0.69 ± 0.05; K -0.342 ± 0.087; V -0.423 ± 0.038; L -0.507 ± 0.05; W -0.327 ± 0.062; I -0.078 ± 0.1; S -0.47 ± 0.051; D -0.515 ± 0.062; R -0.45 ± 0.037; Y -0.749 ± 0.16; C -0.388 ± 0.052; G -0.501 ± 0.036; E -0.591 ± 0.056; M -0.262 ± 0.053; Q -0.381 ± 0.043
K39: G -0.065 ± 0.039; H -0.355 ± 0.075; E 0.062 ± 0.058; D -0.241 ± 0.086; C 0.32 ± 0.072; F -0.421 ± 0.066; A -0.085 ± 0.046
P36: G -0.927 ± 0.086; K -0.846 ± 0.079; H -0.71 ± 0.18; S -1.09 ± 0.16; F -1.04 ± 0.34; Q -1.03 ± 0.31; W -0.954 ± 0.13; E -0.283 ± 0.11; A -0.629 ± 0.06; N -0.818 ± 0.21; M -1.06 ± 0.16; L -1.01 ± 0.064; V -0.96 ± 0.1; C -0.958 ± 0.15; Y -0.713 ± 0.12; D -0.893 ± 0.22
E34: G -0.51 ± 0.066; K -0.369 ± 0.11; T -0.37 ± 0.088; W -0.306 ± 0.049; Y -0.272 ± 0.077; L -0.155 ± 0.053; D -0.312 ± 0.11; S -0.163 ± 0.039; V -0.169 ± 0.047; P -1.08 ± 0.24; H -0.172 ± 0.041; M -0.054 ± 0.075; C -0.268 ± 0.071; Q -0.345 ± 0.11; R -0.307 ± 0.034; A -0.182 ± 0.054
K29: M -0.303 ± 0.081; G -0.002 ± 0.038; F -0.446 ± 0.11; N -0.089 ± 0.038; L -0.343 ± 0.037; V -0.82 ± 0.097; H -0.224 ± 0.092; P -0.889 ± 0.046; T -0.577 ± 0.089; Q -0.063 ± 0.042; S -0.231 ± 0.053; Y -1 ± 0.34; E -0.324 ± 0.079; A -0.237 ± 0.055; C -0.323 ± 0.045; I -0.954 ± 0.21
I24: Q -0.947 ± 0.11; S -1.09 ± 0.2; N -0.715 ± 0.1; A -0.818 ± 0.14; L 0.003 ± 0.083; G -0.98 ± 0.12; R -0.609 ± 0.067; F -0.522 ± 0.21; T -0.701 ± 0.17; H -0.523 ± 0.079; P -0.929 ± 0.19; W -0.356 ± 0.058; C -0.402 ± 0.071; E -0.849 ± 0.16; Y 0.137 ± 0.16
T32: Q 0.038 ± 0.082; D -1.05 ± 0.28; H -0.033 ± 0.087; K -0.775 ± 0.046; S -0.115 ± 0.05; V -0.456 ± 0.085; R -0.648 ± 0.044; M -0.705 ± 0.1; L -0.85 ± 0.1; W -0.807 ± 0.097; Y -0.564 ± 0.07; E -0.655 ± 0.048; A -0.779 ± 0.16; G -0.619 ± 0.078; F -0.574 ± 0.042; C -0.538 ± 0.12; I -0.471 ± 0.14
N18: Y -0.802 ± 0.23
G19: W -0.833 ± 0.1; M -0.827 ± 0.094; Q -0.632 ± 0.15; H -0.496 ± 0.27; N -0.551 ± 0.12; K -0.826 ± 0.17; T -1.05 ± 0.38; Y -0.828 ± 0.053; A -0.734 ± 0.1; E -0.628 ± 0.072; P -0.695 ± 0.14; L -0.923 ± 0.11; C -0.929 ± 0.2; D -0.943 ± 0.26
T30: F -0.466 ± 0.033; Y -0.818 ± 0.14; N -0.566 ± 0.11; V -0.202 ± 0.039; A -0.368 ± 0.075; D -0.347 ± 0.085; Q -0.216 ± 0.058; W -1.38 ± 0.28; I -0.056 ± 0.065; K -0.133 ± 0.073; E -0.206 ± 0.11; P -0.961 ± 0.19; L -0.297 ± 0.04; R -0.2 ± 0.053; G -0.595 ± 0.055; M -0.206 ± 0.073; H 0.276 ± 0.087; S -0.136 ± 0.051
P21: V -0.149 ± 0.057; Q -0.058 ± 0.062; C -0.084 ± 0.06; A -0.055 ± 0.04; L -0.131 ± 0.036; Y 0.055 ± 0.064; W -0.402 ± 0.04; R -0.109 ± 0.038; M -0.218 ± 0.057; F -0.601 ± 0.1; S -0.233 ± 0.046; N -0.487 ± 0.11; T -0.451 ± 0.073; I 0.033 ± 0.061; K 0.027 ± 0.051; E -0.149 ± 0.059; D -0.445 ± 0.039
R37: C -0.611 ± 0.064; A -0.567 ± 0.056; L -0.399 ± 0.076; T -0.256 ± 0.055; K -0.758 ± 0.11; F -0.672 ± 0.14; I -0.75 ± 0.1; W -0.812 ± 0.11; E -0.752 ± 0.17; Q -0.665 ± 0.13; S -0.472 ± 0.049; M -0.364 ± 0.075; G -0.586 ± 0.042; V -0.597 ± 0.044; P -0.867 ± 0.12; H -0.268 ± 0.072; Y -0.784 ± 0.076
F23: N -0.79 ± 0.15; V -0.651 ± 0.057; M -0.751 ± 0.12; Q -0.824 ± 0.1; D -0.679 ± 0.066; G -0.566 ± 0.049; L -0.633 ± 0.059; A -0.416 ± 0.088; C -0.966 ± 0.12; K -0.47 ± 0.07; Y -0.27 ± 0.076; H -0.656 ± 0.12; W -0.147 ± 0.049; I -0.896 ± 0.13; T -0.883 ± 0.14; S -0.856 ± 0.099
F22: N -0.774 ± 0.1; G -0.712 ± 0.048; Q -0.239 ± 0.033; D -0.35 ± 0.11; R -0.745 ± 0.079; T -0.536 ± 0.06; A -0.688 ± 0.08; H -0.844 ± 0.17; K -0.702 ± 0.1; C -0.122 ± 0.069; E -0.393 ± 0.067; L -0.151 ± 0.04; S -0.797 ± 0.091; V -0.211 ± 0.048; I -0.168 ± 0.07
W33: R -0.506 ± 0.047; Q -0.337 ± 0.045; K -0.462 ± 0.09; D -0.484 ± 0.13; G -0.372 ± 0.047; A -0.365 ± 0.056; L -0.433 ± 0.062; E -0.221 ± 0.067; S -0.307 ± 0.041; F -0.142 ± 0.066; N -0.431 ± 0.055; V -0.243 ± 0.05; C -0.653 ± 0.13
